The values below come from paper PMC5519724, “Direct binding to GABARAP family members is essential for HIV-1 Nef plasma membrane localization” (Scientific Reports, 2017).

This assay has as its target T1, recombinant HIV-1 Nef (SF2) with C-terminal hexahistidine tag (HIV-1 (SF2), UniProt P03407).
T1 construct: also called Nef protein; Nef-Sepharose
As to the kind of experiment: SPR; in vitro; estimate of the affinity; who was immobilised and the conditions are not told in the text (Supplementary Fig. 5). As to conditions: both partners purified.

T1 sequence (P03407 whole entry): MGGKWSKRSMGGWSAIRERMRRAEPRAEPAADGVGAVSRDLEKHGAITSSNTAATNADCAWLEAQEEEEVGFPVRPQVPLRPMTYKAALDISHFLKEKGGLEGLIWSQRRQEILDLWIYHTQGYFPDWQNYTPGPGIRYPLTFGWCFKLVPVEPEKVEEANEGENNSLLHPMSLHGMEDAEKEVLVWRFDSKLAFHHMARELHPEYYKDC

B1: recombinant human GABARAP (natural protein)
chain: MKFVYKEEHPFEKRRSEGEKIRKKYPDRVPVIVEKAPKARIGDLDKKKYLVPSDLTVGQFYFLIRKRIHLRAEDALFFFVNNVIPPTSATMGQLYQEHHEEDFFLYIAYSDESVYGL
notes: also called 15N-GABARAP; [U-15N]-GABARAP
One may read the Kd as the equilibrium constant for the complex coming apart. As to B1, the Kd was around 20 µM.
